Measured values: IntAct's records for PubMed 24855951

Target: dtx_drome dx (UniProt Q23985)
Sequence (Q23985 whole entry): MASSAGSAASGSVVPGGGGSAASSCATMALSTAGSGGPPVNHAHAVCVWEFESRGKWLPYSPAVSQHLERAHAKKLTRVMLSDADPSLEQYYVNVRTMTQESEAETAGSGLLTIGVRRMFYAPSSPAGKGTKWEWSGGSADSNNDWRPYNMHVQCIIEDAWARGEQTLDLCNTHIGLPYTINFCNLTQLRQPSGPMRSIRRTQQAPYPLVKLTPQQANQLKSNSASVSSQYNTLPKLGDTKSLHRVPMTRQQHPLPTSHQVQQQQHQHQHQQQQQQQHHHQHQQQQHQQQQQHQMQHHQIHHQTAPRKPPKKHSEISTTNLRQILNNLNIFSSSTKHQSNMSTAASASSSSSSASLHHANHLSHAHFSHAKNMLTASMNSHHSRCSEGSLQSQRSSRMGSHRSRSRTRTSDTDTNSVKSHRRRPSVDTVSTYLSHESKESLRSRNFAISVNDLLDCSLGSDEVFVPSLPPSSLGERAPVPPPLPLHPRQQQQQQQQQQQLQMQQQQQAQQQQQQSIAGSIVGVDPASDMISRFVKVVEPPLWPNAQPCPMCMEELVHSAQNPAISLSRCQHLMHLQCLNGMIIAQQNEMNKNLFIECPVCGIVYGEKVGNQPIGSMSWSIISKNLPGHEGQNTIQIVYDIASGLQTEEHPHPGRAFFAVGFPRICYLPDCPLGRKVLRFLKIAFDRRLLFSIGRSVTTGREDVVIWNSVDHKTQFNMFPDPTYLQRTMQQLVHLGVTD

With “Neurogenic locus Notch protein (Drosophila melanogaster (Fruit fly)), P07207 R2027A” the “effect of a mutation on the interaction” value was “disrupting interaction strength”.
